43 variants from the Human Domainome abundance scans (Beltran et al. 2025) can be followed below.

± gives the uncertainty stated by the source.

B1: Cytoplasmic polyadenylation element-binding protein 2, residues 513 to 575; numbered along this chain, Q7Z5Q1 (parent)
chain: KRVEVKPYVLDDQMCDECQGARCGGKFAPFFCANVTCLQYYCEFCWANIHSRAGREFHKPLVK

In the data set the parent is B1. As to the kind of experiment: abundance fitness (aPCA) (normalised: wild type 0, dead -1); higher = more abundant; growth selection in yeast, the domain comes from the species named. The note with it: Homo sapiens.
Turning to KRVELKPYVLDDQMCDECQGARCGGKFAPFFCANVTCLQYYCEFCWANIHSRAGREFHKPLVK [V5L], the abundance fitness was -0.136 ± 0.039.
For KRVECKPYVLDDQMCDECQGARCGGKFAPFFCANVTCLQYYCEFCWANIHSRAGREFHKPLVK [V5C], the abundance fitness was -0.074 ± 0.042.
As for KRVENKPYVLDDQMCDECQGARCGGKFAPFFCANVTCLQYYCEFCWANIHSRAGREFHKPLVK [V5N], the figure is 0.048 ± 0.086; as for KRVEFKPYVLDDQMCDECQGARCGGKFAPFFCANVTCLQYYCEFCWANIHSRAGREFHKPLVK [V5F], -0.098 ± 0.081; as for KRVEQKPYVLDDQMCDECQGARCGGKFAPFFCANVTCLQYYCEFCWANIHSRAGREFHKPLVK [V5Q], 0.077 ± 0.068.
As for KRREVKPYVLDDQMCDECQGARCGGKFAPFFCANVTCLQYYCEFCWANIHSRAGREFHKPLVK [V3R], the figure is -0.1 ± 0.04.
The value for KRTEVKPYVLDDQMCDECQGARCGGKFAPFFCANVTCLQYYCEFCWANIHSRAGREFHKPLVK [V3T] was 0.167 ± 0.063; that for KRSEVKPYVLDDQMCDECQGARCGGKFAPFFCANVTCLQYYCEFCWANIHSRAGREFHKPLVK [V3S] was 0.013 ± 0.042.
As to KRQEVKPYVLDDQMCDECQGARCGGKFAPFFCANVTCLQYYCEFCWANIHSRAGREFHKPLVK [V3Q], the abundance fitness is 0.11 ± 0.056.
The value for KRYEVKPYVLDDQMCDECQGARCGGKFAPFFCANVTCLQYYCEFCWANIHSRAGREFHKPLVK [V3Y] was -0.37 ± 0.12.
The value for KRVDVKPYVLDDQMCDECQGARCGGKFAPFFCANVTCLQYYCEFCWANIHSRAGREFHKPLVK [E4D] was -0.132 ± 0.063; that for KRVSVKPYVLDDQMCDECQGARCGGKFAPFFCANVTCLQYYCEFCWANIHSRAGREFHKPLVK [E4S] was -0.185 ± 0.048; that for KRVYVKPYVLDDQMCDECQGARCGGKFAPFFCANVTCLQYYCEFCWANIHSRAGREFHKPLVK [E4Y] was -0.275 ± 0.1.
The value for KRVGVKPYVLDDQMCDECQGARCGGKFAPFFCANVTCLQYYCEFCWANIHSRAGREFHKPLVK [E4G] was -0.234 ± 0.059; that for KRVHVKPYVLDDQMCDECQGARCGGKFAPFFCANVTCLQYYCEFCWANIHSRAGREFHKPLVK [E4H] was -0.363 ± 0.1; that for KRVCVKPYVLDDQMCDECQGARCGGKFAPFFCANVTCLQYYCEFCWANIHSRAGREFHKPLVK [E4C] was -0.353 ± 0.073.
Consider KRVFVKPYVLDDQMCDECQGARCGGKFAPFFCANVTCLQYYCEFCWANIHSRAGREFHKPLVK [E4F], for which the abundance fitness is -0.208 ± 0.061.
The value for KRVPVKPYVLDDQMCDECQGARCGGKFAPFFCANVTCLQYYCEFCWANIHSRAGREFHKPLVK [E4P] was -0.145 ± 0.045; that for KRVVVKPYVLDDQMCDECQGARCGGKFAPFFCANVTCLQYYCEFCWANIHSRAGREFHKPLVK [E4V] was -0.223 ± 0.045.
As for KRVTVKPYVLDDQMCDECQGARCGGKFAPFFCANVTCLQYYCEFCWANIHSRAGREFHKPLVK [E4T], the figure is -0.111 ± 0.047; as for KRVLVKPYVLDDQMCDECQGARCGGKFAPFFCANVTCLQYYCEFCWANIHSRAGREFHKPLVK [E4L], -0.322 ± 0.039; as for KRVAVKPYVLDDQMCDECQGARCGGKFAPFFCANVTCLQYYCEFCWANIHSRAGREFHKPLVK [E4A], -0.15 ± 0.039.
As to KRVMVKPYVLDDQMCDECQGARCGGKFAPFFCANVTCLQYYCEFCWANIHSRAGREFHKPLVK [E4M], the abundance fitness is -0.242 ± 0.054.
As for KRVKVKPYVLDDQMCDECQGARCGGKFAPFFCANVTCLQYYCEFCWANIHSRAGREFHKPLVK [E4K], the figure is -0.239 ± 0.063; as for KRVNVKPYVLDDQMCDECQGARCGGKFAPFFCANVTCLQYYCEFCWANIHSRAGREFHKPLVK [E4N], -0.15 ± 0.08.
The value for KRVQVKPYVLDDQMCDECQGARCGGKFAPFFCANVTCLQYYCEFCWANIHSRAGREFHKPLVK [E4Q] was -0.099 ± 0.053; that for KRVIVKPYVLDDQMCDECQGARCGGKFAPFFCANVTCLQYYCEFCWANIHSRAGREFHKPLVK [E4I] was -0.289 ± 0.097.
As for KRVEVDPYVLDDQMCDECQGARCGGKFAPFFCANVTCLQYYCEFCWANIHSRAGREFHKPLVK [K6D], the figure is 0.029 ± 0.065; as for KRVEVGPYVLDDQMCDECQGARCGGKFAPFFCANVTCLQYYCEFCWANIHSRAGREFHKPLVK [K6G], -0.017 ± 0.033; as for KRVEVVPYVLDDQMCDECQGARCGGKFAPFFCANVTCLQYYCEFCWANIHSRAGREFHKPLVK [K6V], -0.104 ± 0.034.
In the case of KRVEVAPYVLDDQMCDECQGARCGGKFAPFFCANVTCLQYYCEFCWANIHSRAGREFHKPLVK [K6A], the abundance fitness is -0.045 ± 0.038.
As for KRVEVNPYVLDDQMCDECQGARCGGKFAPFFCANVTCLQYYCEFCWANIHSRAGREFHKPLVK [K6N], the figure is 0.006 ± 0.063.
The value for KRVEVPPYVLDDQMCDECQGARCGGKFAPFFCANVTCLQYYCEFCWANIHSRAGREFHKPLVK [K6P] was -0.102 ± 0.046; that for KRVEVLPYVLDDQMCDECQGARCGGKFAPFFCANVTCLQYYCEFCWANIHSRAGREFHKPLVK [K6L] was -0.297 ± 0.037.
On to KRVEVHPYVLDDQMCDECQGARCGGKFAPFFCANVTCLQYYCEFCWANIHSRAGREFHKPLVK [K6H], for which the abundance fitness was -0.225 ± 0.06.
As for KRVEVEPYVLDDQMCDECQGARCGGKFAPFFCANVTCLQYYCEFCWANIHSRAGREFHKPLVK [K6E], the abundance fitness was -0.069 ± 0.048.
As for KRVEVMPYVLDDQMCDECQGARCGGKFAPFFCANVTCLQYYCEFCWANIHSRAGREFHKPLVK [K6M], the figure is -0.028 ± 0.049; as for KRVEVYPYVLDDQMCDECQGARCGGKFAPFFCANVTCLQYYCEFCWANIHSRAGREFHKPLVK [K6Y], -0.382 ± 0.1.
As for KRVEVSPYVLDDQMCDECQGARCGGKFAPFFCANVTCLQYYCEFCWANIHSRAGREFHKPLVK [K6S], the figure is -0.085 ± 0.039.
KRVEVQPYVLDDQMCDECQGARCGGKFAPFFCANVTCLQYYCEFCWANIHSRAGREFHKPLVK [K6Q]: the abundance fitness is -0.083 ± 0.044.
Turning to KRVEVRPYVLDDQMCDECQGARCGGKFAPFFCANVTCLQYYCEFCWANIHSRAGREFHKPLVK [K6R], the abundance fitness is -0.128 ± 0.034.
As for KRVEVFPYVLDDQMCDECQGARCGGKFAPFFCANVTCLQYYCEFCWANIHSRAGREFHKPLVK [K6F], the figure is -0.337 ± 0.066.
As for KRVEVWPYVLDDQMCDECQGARCGGKFAPFFCANVTCLQYYCEFCWANIHSRAGREFHKPLVK [K6W], the figure is -0.315 ± 0.042.
